In patent US20080306243A1 (NEC, published 2008):

B1: SEQ ID NO 6 (peptide)
peptide: ILSRIVGGW
notes: Synthetic 9-mer peptide of PSA (GenBank M26663)
B2: SEQ ID NO 3 (peptide)
peptide: ILLGRHSLF
notes: as for B1
B3: SEQ ID NO 8 (peptide)
peptide: GVLQGITSW
notes: as for B1
B4: SEQ ID NO 7 (peptide)
peptide: VHPQKVTKF
notes: as for B1
B5: SEQ ID NO 5 (peptide)
peptide: QVFQVSHSF
notes: as for B1
B6: SEQ ID NO 9 (peptide)
peptide: VLVHPQWVL
notes: as for B1

target: T1, HLA-A2402 molecule, which is a product of the HLA-A*2402 gene (human); assay: flow cytometry; reassociation of peptide, added β2m and HLA-A2402 on acid-stripped C1R-A24 cells, stained with mAb 17A12
T1 construct: MHC class I molecule on C1R-A24 cells, emptied by acid and reassociated with added β2m and the test peptide; also called HLA-A24 molecule; human HLA-A2402 molecule
Experimental: After neutralization, purified β2m was added to C1R-A24 cells, the obtained product was added to serial dilutions of a peptide, and incubated on ice for 4 hours.
Subsequently, the MHC-pep count per C1R-A24 cell (proportional to the strength of fluorescence of the above-mentioned fluorescent antibody) was quantitatively measured using an FACScan fluorescence-activated cell sorter (Becton Dickinson Biosciences). A binding dissociation constant Kd value between the HLA-A24 molecule and the peptide was calculated from the average strength of fluorescence per cell by a published method (Udaka et al., Immunogenetics, 51, 816-828, 2000).

Compared with B1, B2 is higher in “-log Kd” value: 7.21 -log Kd for the first, 7.47 -log Kd for the second.

Going from B3 to B4, the “-log Kd” value rises from 5.38 -log Kd to 6.65 -log Kd.

Going from B5 to B6, the “-log Kd” value falls from 7.32 -log Kd to 6.34 -log Kd.
